Experiment [1] has as its target mouse SOD1 expressed in mouse neuroblastoma cells (MNA) (mouse, UniProt P08228 2-154). The experiment is described as follows: IP from mouse neuroblastoma (MNA) cell lysate, immunoblot rabbit anti-SOD1. (In general: In western blotting, separated proteins are transferred to a membrane and probed.)
Description: Expression of SOD1 in mouse neuroblastoma cells (MNA) was assessed by SDS-PAGE followed by immunoblot with rabbit anti-SOD1 (lysate). The position of migration of SOD1 as well as position of a non-specific high molecular weight (HMW) band is indicated to the right of the immunoblots. MNA lysates were precipitated with 11 human anti-hSOD1 antibodies as well as a control, isotype matched irrelevant antibody (Neg control) which are listed above the immunoblots.
Experiment [2] has as its target T1, hSOD1 purified from human erythrocytes (human, UniProt P00441 2-154).
T1 construct: Bought from Sigma; also called E-hSOD1
The experiment is described as follows: Octet QK, hSOD1 coupled to biosensor, antibody in solution. On the technique in general: BLI is a label-free optical method that tracks binding on a fibre tip over time.
Description: Affinity of antibodies was determined using an Octet QK (ForteBio) biomolecular interaction instrument. […] The Octet QK uses biosensors to assess mass increases/decreases and determine rates of association and disassociation. A biosensor coated with amine-reactive chemistry was introduced into a solution containing E-hSOD1 or b-hSOD1 to covalently link these proteins to the surface of the biosensor. Unbound hSOD1 was washed away and the coated biosensor was introduced into a solution containing anti-SOD1 monoclonal antibodies at which time Kₒₙ was determined. The sensor was then introduced into a buffer solution containing no antibody and the Koff determined Using Kₒₙ and Koff an affinity (KD) was calculated.
Affinity analysis was performed on all 13 lead-candidate anti-hSOD1 human monoclonal antibodies.

Experiment [3] addresses T2, bacterially-expressed hSOD1 (human, UniProt P00441 2-154).
T2 construct: Not fully metallated, expected to be partly misfolded; also called b-hSOD1; GST-b-hSOD1; not shown: N-terminal glutathione sulfotransferase (GST) domain from vector pGEX-4T-3
The experiment is described as above.

A further experiment has as its target T3, b-hSOD1-OX (oxidized with 10 mM hydrogen peroxide for 24 hours; residues not given ; Oxidised with 10 mM hydrogen peroxide for 24 hours. The oxidised residues are not stated, so the letters are left …).
T3 construct: also called oxidized bacterially-expressed hSOD1 (GST fusion); not shown: N-terminal GST domain of pGEX-4T-3 and the vector-derived linker
The experiment is described as follows: ELISA on coated protein, antibody titrated, OD 405nm. (An ELISA detects its analyte on a solid surface through an enzyme-linked reagent.)

Experiment [4] deals with T4, b-hSOD1-B (amino acids 1 to 77) (human, UniProt P00441 2-78).
T4 construct: also called B truncation; not shown: N-terminal thioredoxin (trx) domain from vector pET32-a-myc; C-terminal myc and 6 histidine tags
T4 sequence (P00441 2-78): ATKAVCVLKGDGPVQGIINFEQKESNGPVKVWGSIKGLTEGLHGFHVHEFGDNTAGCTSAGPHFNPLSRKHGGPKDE
The experiment is described as follows: ELISA, captured b-hSOD1 truncations.

Experiment [5] concerns the target T5, b-hSOD1-C (amino acids 1 to 116) (human, UniProt P00441 2-117).
T5 construct: also called C truncation; not shown: N-terminal thioredoxin (trx) domain from vector pET32-a-myc; C-terminal myc and 6 histidine tags
Briefly: ELISA, captured b-hSOD1 truncations.

Experiment [6] concerns the target T6, b-hSOD1-I (amino acids 39 to 116) (human, UniProt P00441 39-117).
T6 construct: also called I truncation; not shown: N-terminal thioredoxin (trx) domain from vector pET32-a-myc; C-terminal myc and 6 histidine tags
Briefly: ELISA, captured b-hSOD1 truncations.

Experiment [7] deals with T7, b-hSOD1-D (amino acids 39 to 153) (human, UniProt P00441 40-154).
T7 construct: also called D truncation; not shown: N-terminal thioredoxin (trx) domain from vector pET32-a-myc; C-terminal myc and 6 histidine tags
T7 sequence (P00441 40-154): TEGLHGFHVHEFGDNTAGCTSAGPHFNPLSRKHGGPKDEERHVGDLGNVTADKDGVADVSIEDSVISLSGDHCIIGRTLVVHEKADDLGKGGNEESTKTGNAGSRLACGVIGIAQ
Briefly: ELISA, captured b-hSOD1 truncations.

T5 sequence (P00441 2-117): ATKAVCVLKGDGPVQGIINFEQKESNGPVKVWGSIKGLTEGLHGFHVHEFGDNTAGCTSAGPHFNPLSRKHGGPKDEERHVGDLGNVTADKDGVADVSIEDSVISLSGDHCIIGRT
T6 sequence (P00441 39-117): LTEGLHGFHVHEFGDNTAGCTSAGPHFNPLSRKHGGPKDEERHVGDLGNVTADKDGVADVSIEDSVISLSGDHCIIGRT
T1 sequence (P00441 2-154): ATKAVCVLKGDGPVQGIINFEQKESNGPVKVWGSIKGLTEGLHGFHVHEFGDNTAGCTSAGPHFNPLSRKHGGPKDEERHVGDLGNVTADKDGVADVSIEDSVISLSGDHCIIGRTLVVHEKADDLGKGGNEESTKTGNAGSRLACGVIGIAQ
T2 sequence (P00441 2-154): as above
T3 sequence (chain, as listed by the source limits assumed): as the sequence (P00441 2-154) above
Description for b-hSOD1-OX: ELISA was carried out with the b-hSOD1, E-hSOD1, b-hSOD1 truncations, b-hSOD1 mutants, and oxidized/reduced forms of SOD1 to determine antibody reactivity. Briefly, 96-well plates were coated with the desired protein and hybridoma supernatant or purified antibody was added to the 96 well plates to determine protein reactivity. Bound antibody was detected with anti-human alkaline phosphatase secondary antibody and PNPP substrate.
To determine reactivity of the lead-candidate antibodies with various forms of SOD1, ELISA was employed. b-hSOD1, b-hSOD1-A4V, b-hSOD1-G85R and b-hSOD1-G93A were expressed and purified from E. coli. Also, b-hSOD1 was either reduced with DTT or oxidized with hydrogen peroxide to produce monomerized and damaged b-hSOD1 respectively. ELISA plates were coated with b-hSOD1, mutants of b-hSOD1, oxidized/reduced b-hSOD1 or E-hSOD1. Plates were washed and a series of dilutions of each of the 13 antibodies was applied to each of the various hSOD1 proteins. Antibody binding was detected with a goat anti-human alkaline phosphatase secondary antibody and the interaction developed with PNPP.

B1: 358-22 (antibody, V domains shown)
VH: QVQLVESGGGVVQPGRSLRLSCAASGFTFRSYGMHWVRQAPGKGLEWVTLIWYDGSNKYYADSVKGRFTISRDNSKNTLYLQMNSLRVEDTAVYYCAREGFNWDAFDIWGQGTMVTVSS
VL: EIVLTQSPGTLSLSPGERATLSCRASQSVRISYLAWYQQKPGQAPRLLIYGTFSRATGIPDRFSGSGSGTDFTLTISRLEPEDFAVYYCQQYGSSMYTFGQGTKLEIK
notes: Human IgG kappa monoclonal from HuMab mouse hybridoma; Conformation-dependent antibody
Regarding B1, in experiment [1], the binding result is reported as “binds”.

B2: 306-155 (antibody, V domains shown)
VH: EVQLVQSGAEVKKPGESLKISCKGSGYSFTSYWIGWVRQMPGKGLEWMGIIYPGDSDTRYSPSFQGQVTISADKSISTAYLQWSSLKASDTAMYYCARQGSGWYGNYFDYWGQGTLVTVSS
VL: EIVLTQSPGTLSLSPGERATLSCRASQSFSRGYLAWYQQKPGQAPRLLIYGASSRVTGIPDRFSGSGSGTDFTLTISRLEPEDFAVYYCQQYDSSPYTFGQGTKLEIK
notes: as for B1
For B2, the binding result in experiment [1] was “no binding”.

B3: 311-3 (antibody, V domains shown)
VH: QVQLQQWGAGLLKPSETLSLTCAVYGGSFSGYYWNWIRQPPGMGLEWIGEIHQSGGPHYNPSLKSRVSISVDTSKNQVNLKLSSVTAADTAIYYCTELDDYWGQGTLVTVSS
VL: EIVLTQSPATLSLSPGERATLSCRASQSVSSYLAWYQQKPGQAPRLLIYNASNRATGIPARFSGSGSGTDFTLTIGSLEPEDFAVYYCQQRSNWPRTFGQGTKVEIK
notes: Human IgG kappa monoclonal from HuMab mouse hybridoma
As for B3, the binding result in experiment [1] is “no binding”.

B4: 303-8 (antibody, V domains shown)
VH: QVQLVQSGAEVKKPGSSVKVSCKASGGSFSIYVISWVRQAPGQGLEWMGRIIPILGTTNYAQKFQGRVTITADKSTSTAYMELSSLRSEDTAVYYCARPDSPNHSNTFDYWGQGTLVTVSS
VL: DIQMTQSPSSLSASVGDRVTITCRASQGISSWLAWYQQKPEKAPKSLIYGASSLQSGVPSRFSGSGSGTDFTLTISSLQPEDFATYYCQQYNSYPYTFGQGTKLEIK
notes: as for B1
Take B4: the Kd (usually a measure of binding affinity in units of concentration) in experiment [2] is 8.8 nM; in experiment [3] it was 1.2 nM. Also, the binding result with b-hSOD1-OX was “binds”; in experiment [4], “no binding”; in experiment [5], “no binding”; in experiment [6], “no binding”; in experiment [7], “no binding”.

B5: 591-37 (antibody, V domains shown)
VH: EVQLVQSGGGLVHPGGSLRLSCAGSGFTFSRYALHWVRQAPGKGLEWVSAIGIGGGTFYADSVKGRFTISRDNAKNSLYLQMNSLRAEDMAVYYCARDTYYDFFDAFDIWGQGTMVTVSS
VL: DIQMTQSPSSLSASVGDRVTITCRASQGISSWLAWYQQKPEKAPKSLIYAASSLQSGVPSRFSGSGSGTDFTLTISSLQPEDFATYYCQQYDSYPLTFGGGTKVEIK
notes: as for B3
For the molecule B5, the binding result in experiment [1] is “no binding”.

B6: 114-41 (antibody, V domains shown)
VH: QVQLVQSGAEVKTPGASVKVSCKASGYTFTSFGISWVRQAPGQGLEWMGWISVYNDYTNYAQKFQGRVTMTTDTSTSTAYMELRSLRSDDTAMYYCARKRGGDMDYWGQGTLVTVSS
VL: DIQMTQSPSSVSASVGDRVTITCRASQDISSWLAWYQHKPGKAPKLLIYLASSLQSGVPSRFSGSGSGTDFTLTISSLQPEDFATYYCQQANSFPWTFGQGTKVEIK
notes: as for B1
B6: the binding result in experiment [1] was “no binding”.

B7: 358-11 (antibody, V domains shown)
VH: QVQLVESGGGVVQPGRSLRLSCAASGFTFSNYGIHWVRQAPGKGLEWVAIIWHDGSNSYYVDSVKGRFTMSRDNSKNTVYLQMNSLRAEDTAVYFCARIIGGAFDIWGQGTMVTVSS
VL: DIQMTQSPSSLSASVGDRVTITCRASQGISSWLAWYQQKPEKAPKSLIYAASSLQSGVPSRFSGSGSGTDFTLTISSLQPEDFATYYCQQYNSYPITFGQGTRLEIK
notes: as for B3
Turning to B7, the binding result in experiment [1] is “no binding”.

B8: 591-33 (antibody, V domains shown)
VH: EVQLVESGGGLVQPGGSLRLSCAASGFTFSRYWMSWVRQAPGKGLEWMANIKQDGSETHYVDSVKGRFTISRDNAKNSLYLQMNSLRAEDTAVYYCAIGDYWGQGTLVTVSS
VL: DIQMTQSPSSLSASVGDRVTITCRASQDISSWLAWYQQKPEKAPKSLIYAASSLQSGVPSRFSGSGSGTDFTLTISSLQPEDFATYYCQQYKSYPLTFGGGTKVEIK
notes: as for B3
For B8, the binding result in experiment [1] was “no binding”.

B9: 14-173 (antibody, V domains shown)
VH: EVQLVESGGGLVQPGGSLRLSCAASGFTFSSFWMSWVRQAPGKGLEWVANIKHDGSEQDYVDSVKGRFTISRDNAKNSLYLQMNSLRAEDTAVYYCARGGIWFGPWGQGTLVTVSS
VL: VIWMTQSPSLLSASTGDRVTISCRMSQGISSYLAWYQQKPGKAPEVLIYAVSTLQSGVPSRFSGSGSGTDFTLTISCLQSEDFATYYCQQYYSFPYTFGQGTKLEIK
notes: as for B1
Consider B9, for which the Kd amounted to 3.5 nM in experiment [2] and 19 nM in experiment [3]. For the same molecule, the binding result in experiment [1] was “binds”; in experiment [4] it was “no binding”; in experiment [5] it was “no binding”; in experiment [6], “no binding”; in experiment [7], “no binding”.

B10: 312-19 (antibody, V domains shown)
VH: QVQLVQSGAEVKKPGSSVKVSCKASGGTFNNFVIGWVRQAPGQGLEWMGRIIPILDIANYAQKFQGRVTITADKSTSTVYMELNSLRSEDTAVYYCARTGNYYKPYDYWGQGTLVTVSS
VL: EIVLTQSPDFQSVTPKEKVTITCRASQSIGSSLHWYQQKPDQSPKLLIKYASQSFSGVPSRFSGSGSGTDFTLTINSLEAEDAAAYYCHQSSSLPITFGQGTRLEIK
notes: as for B1
For B10, the binding result in experiment [1] is on record as “no binding”.

B11: 597-120 (antibody, V domains shown)
VH: EVHLVESGGGLVQSGGSLRLSCAASGFSISGYWMSWVRQAPGKGLEWVANIKQDGGEKYYGDSVKGRFTISRDNAENSLYLQMSSLRAEDTAVYYCVMAGGLDYWGQGALVTVSS
VL: EIVLTQSPATLSLSPGERATLSCRASQSVSSYLAWYQQKPGQAPRLLIYDASNRATGIPARFSGSGSGTDFTLTISSLEPEDFAVYYCQQRSNWYTFGQGTKLEIK
notes: as for B1
Turning to B11, the binding result in experiment [1] is reported as “no binding”.
